{"source": "paper PMC12162814", "key": {"H-NSctd WT [1]": {"biological_target": "T1, H-NSctd WT (Salmonella enterica serovar Typhimurium, UniProt P0A1S2 85-137)", "assay": "ITC"}, "H-NSctd WT [2]": {"biological_target": "T1, H-NSctd WT", "assay": "NMR titration"}, "H-NSctd T115A": {"biological_target": "H-NSctd T115A (Salmonella enterica serovar Typhimurium, UniProt P0A1S2 85-137, T115A)", "assay": "NMR titration"}, "H-NSctd K107A": {"biological_target": "H-NSctd K107A (Salmonella enterica serovar Typhimurium, UniProt P0A1S2 85-137, K107A)", "assay": "NMR titration"}, "H-NSctd WT [3]": {"biological_target": "T1, H-NSctd WT", "assay": "NMR titration", "remark": "listed apart in the source"}}, "data": [{"binder": "3AT DNA (dsDNA) DNA 1: CGCATATATGCG DNA 2: CGCATATATGCG", "values": [{"measurement": "Kd", "setting": "H-NSctd WT [1]", "value": "7.6 ± 0.5", "unit": "µM"}, {"measurement": "Kd", "setting": "H-NSctd WT [2]", "value": "6.3 ± 0.6", "unit": "µM"}, {"measurement": "Kd", "setting": "H-NSctd T115A", "value": "4.1 ± 1.2", "unit": "µM"}, {"measurement": "Kd", "setting": "H-NSctd K107A", "value": "5.3 ± 1.6", "unit": "µM"}, {"measurement": "Kd", "setting": "H-NSctd WT [3]", "value": "1.5 ± 0.5", "unit": "µM"}]}]}
